{"source": "paper PMC5607398", "about": "“Neisseria cinerea Expresses a Functional Factor H Binding Protein Which Is Recognized by Immune Responses Elicited by Meningococcal Vaccines” (Infection and Immunity, 2017)", "molecules": {"B1": {"name": "Neisseria meningitidis V1.1 factor H binding protein (V1.1 fHbp), recombinant (natural protein)", "chain": "GGVAADIGAGLADALTAPLDHKDKGLQSLTLDQSVRKNEKLKLAAQGAEKTYGNGDSLNTGKLKNDKVSRFDFIRQIEVDGQLITLESGEFQVYKQSHSALTAFQTEQIQDSEHSGKMVAKRQFRIGDIAGEHTSFDKLPEGGRATYRGTAFGSDDAGGKLTYTIDFAAKQGNGKIEHLKSPELNVDLAAADIKPDGKRHAVISGSVLYNQAEKGSYSLGIFGGKAQEVAGSAEVKTVNGIRHIGLAAKQ", "notes": "source: E. coli BL21(DE3), pET21b, purified (HisTrap, anion exchange)"}}, "key": {"[1]": {"biological_target": "Neisseria cinerea CCUG 346T factor H binding protein (V1.110 fHbp), recombinant (Neisseria cinerea)", "assay": "SPR"}, "[2]": {"biological_target": "full-length human CFH (Sigma) (UniProt P08603)", "assay": "ELISA", "conditions": "read off a plot"}, "[3]": {"biological_target": "B1", "assay": "SPR", "conditions": "both partners purified"}, "[4]": {"biological_target": "T1, full-length human CFH (Sigma) (human, UniProt P08603 19-1231)", "T1 construct": "also called full-length CFH; source: bought: Sigma", "assay": "ELISA; plates coated with recombinant fHbp (3 ug/ml); full-length human CFH (Sigma) in 2-fold dilutions from 10 ug/ml; detected with anti-CFH antibody", "conditions": "both partners purified"}}, "data": [{"molecule": "recombinant CFH6–7 (CCP domains 6 and 7 of complement factor H) (from UniProt P08603 321-443) (domain or fragment)", "values": [{"measurement": "Kd", "setting": "[1]", "value": 3.5, "unit": "nM"}]}, {"molecule": "Neisseria meningitidis V1.1 factor H binding protein (V1.1 fHbp), recombinant (from UniProt Q9JXV4) I311A", "values": [{"measurement": "response", "setting": "[2]; CFH 1.25 µg/ml (x position estimated), parent: est. 0.35", "value": 0.073, "unit": "OD 450nm"}, {"measurement": "response", "setting": "[2]; CFH 2.5 µg/ml, parent: est. 0.40", "value": 0.082, "unit": "OD 450nm"}, {"measurement": "response", "setting": "[2]; CFH 5 μg/ml, parent: est. 0.40", "value": 0.082, "unit": "OD 450nm"}, {"measurement": "response", "setting": "[2]; CFH 5 µg/ml, parent: est. 0.41", "value": 0.11, "unit": "OD 450nm"}, {"measurement": "response", "setting": "[2]; CFH 10 µg/ml, parent: est. 0.47", "value": 0.19, "unit": "OD 450nm"}]}, {"molecule": "recombinant CFH6–7 (CCP domains 6 and 7 of complement factor H) (domain or fragment, human) TLKPCDYPDIKHGGLYHENMRRPYFPVAVGKYYSYYCDEHFETPSGSYWDHIHCTQDGWSPAVPCLRKCYFPYLENGYNQNYGRKFVQGKSIDVACHPGYALPKAQTTVTCMENGWSPTPRCI", "values": [{"measurement": "Kd", "setting": "[3]", "value": "3 ± 0.5", "unit": "nM"}]}, {"molecule": "B1", "values": [{"measurement": "binding result", "setting": "[4]", "value": "binds"}]}]}
